Test results reported in patent publication US20210380703A1 (RIGEL PHARMACEUTICALS, published 2021).
Numbering of substitutions follows the chain as printed.

B1: 371_G05 (antibody, V domains shown)
VH: EVQLLESGGGLVQPGGSLRLSCAASGFTFDSYSMNWVRQAPGKGLEWVSGINYNSGYTGYADSVKGRFTISRDNSKNTLYLQMNSLRAEDTAVYYCARSANWHDTALDYWGQGTLVTVSS
VL: DIQMTQSPSSLSASVGDRVTITCRASQSISSYLNWYQQKPGKAPKLLIYAVTSRASGVPSRFSGSGSGTDFTLTISSLQPEDFATYYCQQSYSSPLTFGGGTKVEIK
B2: 373_E07 (antibody, V domains shown)
VH: B1 VH with D30S, S33G, S49A, G50N, S55G, G59S
VL: B1 VL with S30L, S31T, L33V, V51A, R54L, S93E, S94T
B3: 373_C06 (antibody, V domains shown)
VH: B1 VH with D30S, S49A, S55G
VL: B1 VL with S30V, L33V, L47V, V51A, S93D, S94T
B4: 373_E12 (antibody, V domains shown)
VH: B1 VH with D30S, S49A, G50N, S55G
VL: B1 VL with S30L, L33V, L47V, V51A, S93D, S94T
B5: 373_D10 (antibody, V domains shown)
VH: B1 VH with G50N, T58K
VL: B1 VL with S30L, L33V, V51A, S93D, S94L
B6: 373_B12 (antibody, V domains shown)
VH: B1 VH with S33G, G50S, G59S
VL: B1 VL with S30V, L33V, V51A, S93D
B7: 373_E01 (antibody, V domains shown)
VH: B1 VH with D30S, S33G, S55G, T58K
VL: B1 VL with S30V, L33V, V51A, A55H, S93N, S94N
B8: 373_C04 (antibody, V domains shown)
VH: B1 VH with D30S, S49A, G50N
VL: B1 VL with S30I, L33V, L47V, S93N
B9: 374_A07 (antibody, V domains shown)
VH: B1 VH with D30S, T58K
VL: B1 VL with S30L, L33V, S93D, S94L
B10: 373_C08 (antibody, V domains shown)
VH: B1 VH with D30S, S49A, G50N, S55G, G59S
VL: B1 VL with S30I, V51A, T52S, R54L, A55Q, S93N, S94N
B11: 371_G10 (antibody, V domains shown)
VH: B1 VH with D30S, S55G, T58K, G59S
VL: B1 VL with L33V, V51A, A55H, Y92D, S93D
B12: 371_H09 (antibody, V domains shown)
VH: B1 VH with G50N, S55G, G59S
VL: B1 VL with S30L, S31T, L33V, L47V, V51A, R54L, S93D
B13: 373_A08 (antibody, V domains shown)
VH: B1 VH with S33G, G50N, S55G
VL: B1 VL with S30V, L33V, V51A, R54L, S94L
B14: 373_D05 (antibody, V domains shown)
VH: B1 VH with D30S, T58K
VL: B1 VL with S30L, L47V, V51A, S93D
B15: 372_B04 (antibody, V domains shown)
VH: B1 VH with S33G, S49A, G50N, S55G, G59S
VL: B1 VL with S30L, L33V, L47V, V51A, R54L, S93D
B16: 373_D01 (antibody, V domains shown)
VH: B1 VH with T58K, G59S, A106H
VL: B1 VL with S30L, L33V, L47V, V51A, S93D
B17: 372_A04 (antibody, V domains shown)
VH: B1 VH with G59S
VL: B1 VL with S30L, S31T, L47V, V51A, S93E, S94T
B18: 373_B06 (antibody, V domains shown)
VH: B1 VH with D30S, S31D, S49A, S55G
VL: B1 VL with S30L, S31T, L33V, L47V, V51A, A55H, S93E
B19: 372_F09 (antibody, V domains shown)
VH: B1 VH with S49A, G50N, T58K
VL: B1 VL with S30L, S31T, L47V, V51A, R54L
B20: 373_C11 (antibody, V domains shown)
VH: B1 VH with D30S
VL: B1 VL with S30L, S31T, L33V, L47V, S93E, S94T
B21: 372_F06 (antibody, V domains shown)
VH: B1 VH with D30S, S31D, S33G, S49A, S55G, T58K, G59S
VL: B1 VL with S30L, L33V, V51A, R54L, S93E, S94T
B22: 373_H01 (antibody, V domains shown)
VH: B1 VH with S49A, G50N, S55G
VL: B1 VL with S30L, L47V, V51A, S93D, S94N
B23: 373_C02 (antibody, V domains shown)
VH: B1 VH with S31D, T58K
VL: B1 VL with S30L, L33V, V51A, S93N, S94T
B24: 373_B10 (antibody, V domains shown)
VH: B1 VH with S33G, G50N, S55G, G59S
VL: B1 VL with S30L, V51A, S93D, S94L
B25: 373_E05 (antibody, V domains shown)
VH: B1 VH with S33G, G50N, S55G, G59S
VL: B1 VL with S30L, L33V, S93D, S94L
B26: 373_D04 (antibody, V domains shown)
VH: B1 VH with T58K
VL: B1 VL with S30L, V51A, A55H, S93D
B27: 372_D02 (antibody, V domains shown)
VH: B1 VH with D30S, S33G, N35H, S49A, S55G
VL: B1 VL with S30L, S31T, L47V, V51A, S93D, S94N
B28: 372_C07 (antibody, V domains shown)
VH: B1 VH with D30S, S31D, G50N, G59S, A106H
VL: B1 VL with S30L, L47V, V51A, A55H, Y92D, S93N, S94T
B29: 372_F08 (antibody, V domains shown)
VH: B1 VH with D30S, S31D, G50N
VL: B1 VL with S30L, S31T, L33V, L47V, V51A, S93D, S94T
B30: 373_H05 (antibody, V domains shown)
VH: B1 VH with D30S, S31D, S49A, G50N, S55G, T58K
VL: B1 VL with S30L, S31T, L33V, L47V, V51A, S93E, S94T
B31: 373_A02 (antibody, V domains shown)
VH: B1 VH with S33G, S55G, T58K
VL: B1 VL with S30L, L33V, L47V, V51T, R54L, S93N, S94T
B32: 373_G10 (antibody, V domains shown)
VH: B1 VH with D30S, S31D, S33G, G50N, S55G, T58K, G59S
VL: B1 VL with S30V, L33V, V51A, S93D, S94L
B33: 373_A10 (antibody, V domains shown)
VH: B1 VH with D30S, S33G, G59S
VL: B1 VL with S30L, L47V, V51A, S93D, S94L
B34: 372_F03 (antibody, V domains shown)
VH: B1 VH with D30S, S33G, S49A, S55G, G59S
VL: B1 VL with S30L, L47V, V51A, S93D, S94T
B35: 373_G12 (antibody, V domains shown)
VH: B1 VH with D30S, G50N, S55G, G59S
VL: B1 VL with S30L, V51T, R54L, S93N
B36: 373_B04 (antibody, V domains shown)
VH: B1 VH with D30S, S33G, S49A, T58K
VL: B1 VL with S30L, S31T, V51A, S93E, S94T

target: T1, Human ACVR2A (human, UniProt P27037 20-135, limits assumed); test: ELISA
T1 construct: also called activin receptor, type II A
T1 sequence (P27037 20-135 limits assumed): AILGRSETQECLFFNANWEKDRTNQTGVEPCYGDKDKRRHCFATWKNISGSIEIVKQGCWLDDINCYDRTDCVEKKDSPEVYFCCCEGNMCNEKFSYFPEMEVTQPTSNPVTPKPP
Procedure, shortened: (§1)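 Binding signal was read by ELISA after ACVR2A-specific monoclonal antibodies were tested against human ACVR2A and mouse ACVR2A, with human Fc as the negative control.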
Further: test concentration or dose not given here.

optical density [OD]	Binder
1.25	B1
3.48	B2
3.54	B3
3.63	B4
3.61	B5
3.12	B6
2.35	B7
3.36	B8
3.62	B9
3.05	B10
1.65	B11
2.96	B12
3.3	B13
3.68	B14
2.61	B15
3.23	B16
3.2	B17
3.44	B18

optical density [OD]	Binder
3.17	B19
3.49	B20
2.26	B21
3.1	B22
3.45	B23
3.65	B24
3.54	B25
3.68	B26
2.66	B27
2.41	B28
3.38	B29
3.29	B30
2.8	B31
3.54	B32
3.54	B33
3.19	B34
3.47	B35
3.6	B36

target: Mouse ACVR2A (mouse, UniProt P27038 20-135, limits assumed); test: ELISA
Sequence (P27038 20-135 limits assumed): as the sequence (P27037 20-135 limits assumed) above, with K20R, V73I counted along it
Procedure, shortened: as §1

optical density [OD]	Binder
1.33	B1
3.54	B2
3.53	B3
3.33	B4
3.61	B5
3.08	B6
2.56	B7
3.5	B8
3.71	B9
3.19	B10
1.92	B11
3.23	B12
3.31	B13
3.73	B14
3.12	B15
3.57	B16
3.4	B17
3.43	B18

optical density [OD]	Binder
3.04	B19
3.47	B20
2.54	B21
3.28	B22
3.47	B23
3.6	B24
3.59	B25
3.65	B26
2.91	B27
2.64	B28
3.22	B29
3.29	B30
2.97	B31
3.56	B32
3.55	B33
3.31	B34
3.29	B35
3.62	B36

target: T2, Goat anti-Human Kappa; test: ELISA, positive control
T2 construct: Positive control of the ELISA; also called biotinylated goat anti-human kappa light chain
Procedure, shortened: as §1

optical density [OD]	Binder
3.08	B1
3.23	B2
3.16	B3
3.12	B4
3.11	B5
3.27	B6
2.99	B7
3.2	B8
3.07	B9
3.19	B10
3.41	B11
3.66	B12
3.11	B13
3.25	B14
3.59	B15
3.04	B16
3.64	B17
3.24	B18

optical density [OD]	Binder
3.47	B19
3.17	B20
3.48	B21
3.12	B22
3.15	B23
3.15	B24
3.24	B25
3.15	B26
3.58	B27
3.46	B28
3.44	B29
3.22	B30
2.96	B31
3.26	B32
3.1	B33
3.6	B34
3.26	B35
3.25	B36
